# Assay results: patent US20260062456A1
# Substitutions are numbered along the chain they refer to. In names and notes the source's numbering stands.
# B1: variant PD-L1 IgV-Fc A33D/S75P (IgV SEQ ID NO 285) (Fc fusion)
# chain: FTVTVPKDLYVVEYGSNMTIECKFPVEKQLDLDALIVYWEMEDKNIIQFVHGEEDLKVQHSSYRQRARLLKDQLPLGNAALQITDVKLQDAGVYRCVISYGGADYKRITVKVNAAAAEPKSSDKTHTCPPCPAPELLGGPSVFLFPPKPKDTLMISRTPEVTCVVVDVSHEDPEVKFNWYVDGVEVHNAKTKPCEEQYGSTYRCVSVLTVLHQDWLNGKEYKCKVSNKALPAPIEKTISKAKGQPREPQVYTLPPSREEMTKNQVSLTCLVKGFYPSDIAVEWESNGQPENNYKTTPPVLDSDGSFFLYSKLTVDKSRWQQGNVFSCSVMHEALHNHYTQKSLSLSPGK
# B2: variant PD-L1 IgV-Fc P6S, N45T, N78I, I83T (Fc fusion)
# chain: B1 chain with P6S, D33A, N45T, P75S, N78I, I83T, V97M
# B3: variant PD-L1 IgV-Fc A33D, S75P, D104G (Fc fusion)
# chain: B1 chain with V97M, D104G
# B4: variant PD-L1 IgV-Fc A33D, N45T, N78I (Fc fusion)
# chain: B1 chain with N45T, P75S, N78I, V97M
# B5: variant PD-L1 IgV-Fc A33D, S75P (SEQ ID NO 285) (Fc fusion)
# chain: B1 chain
# B6: variant PD-L1 IgV-Fc S75P, K106R (Fc fusion)
# chain: B1 chain with D33A, V97M, K106R
# B7: variant PD-L1 IgV-Fc A33D, V50A (Fc fusion)
# chain: B1 chain with V50A, P75S, V97M
# B8: variant PD-L1 IgV-Fc I20L, N45T, V110M (Fc fusion)
# chain: B1 chain with I20L, D33A, N45T, P75S, V97M, V110M
# B9: non-stack variant CD155 IgV-Fc control (P18S/S65W/S67A/L104Q/G111R) (Fc fusion)
# chain: WPPPGTGDVVVQAPTQVSGFLGDSVTLPCYLQVPNMEVTHVSQLTWARHGESGSMAVFHQTQGPWYAESKRLEFVAARLGAELRNASLRMFGLRVEDEGNYTCQFVTFPQRSRSVDIWLRVLAAAEPKSSDKTHTCPPCPAPELLGGPSVFLFPPKPKDTLMISRTPEVTCVVVDVSHEDPEVKFNWYVDGVEVHNAKTKPCEEQYGSTYRCVSVLTVLHQDWLNGKEYKCKVSNKALPAPIEKTISKAKGQPREPQVYTLPPSREEMTKNQVSLTCLVKGFYPSDIAVEWESNGQPENNYKTTPPVLDSDGSFFLYSKLTVDKSRWQQGNVFSCSVMHEALHNHYTQKSLSLSPGK
# Target: human PD-1 stably expressed on Jurkat/IL-2 reporter cells (Jurkat/PD-1 cells) (human) (UniProt Q15116)
# Sequence (Q15116 25-288 limits assumed): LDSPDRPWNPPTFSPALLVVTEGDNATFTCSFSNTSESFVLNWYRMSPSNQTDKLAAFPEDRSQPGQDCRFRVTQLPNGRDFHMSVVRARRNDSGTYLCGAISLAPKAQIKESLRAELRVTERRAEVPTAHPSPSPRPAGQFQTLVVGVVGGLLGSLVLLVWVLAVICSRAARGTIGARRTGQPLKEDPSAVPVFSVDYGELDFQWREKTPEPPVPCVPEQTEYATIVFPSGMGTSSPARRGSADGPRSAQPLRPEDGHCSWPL
# Assay: flow cytometry, Jurkat/PD-1 cells
row,MFI at 50 nM,Binder
1,306 MFI,B1

# Target: PD-1 (human) (UniProt Q15116)
# Sequence (Q15116 25-288): as the sequence (Q15116 25-288 limits assumed) above
# Assay: cell-based or functional assay
Average Relative Luminescence Units,Fold increase in IL2 reporter signal,Binder
2250 RLU,1.01 fold,B2
2170 RLU,0.97 fold,B3
1970 RLU,0.89 fold,B4
2170 RLU,0.97 fold,B5
2130 RLU,0.95 fold,B6
2250 RLU,1.01 fold,B7
2210 RLU,0.99 fold,B8

# Target: TIGIT/CD112R/PD1 (Jurkat/PD-1/TIGIT cells carrying PD-1, TIGIT and endogenous CD112R)
# Assay: flow cytometry, Jurkat/PD-1/TIGIT cells
row,MFI at 33.3nM,Binder
1,961 MFI,B9

# Target: human PD-1 and human TIGIT both stably expressed on Jurkat cells (Jurkat/PD-1/TIGIT cells)
# Assay: flow cytometry, Jurkat/PD-1/TIGIT cells, 20 nM
row,MFI at 20 nM,Binder
1,7910 MFI,B9

# Target: human PD-1 stably expressed on Jurkat/IL-2 reporter cells (Jurkat/PD-1 cells) (human) (UniProt Q15116)
# Assay: flow cytometry, Jurkat/PD-1 cells, MFI vs wildtype PD-L1 IgV-Fc
row,Fold increase over wildtype PD-L1 IgV-Fc,Binder
1,0.1 fold,B1
